Patent US20220340657A1
pEC50, pKd: −log10 of the molar value.

What was measured:
[1] = molecular target: cyno-LAG3-hFc (cynomolgus monkey); assay: ELISA
[2] = molecular target: cyno-LAG3-hFc (cynomolgus monkey); assay: Biacore

“positive control antibody Ref (BMS-986016)” showed a pEC50 [1] of 7.45 and a pKd [2] of 6.08.
